Assay results: the supplement of paper PMC6757056
± gives the standard deviation of the averaged measurements.

B1: library; a variant is named by its letters at N, in order (parent)
chain: GCUGUCACCGGUGUAUUACCCUAGUGGUCGACCGGUCUGAUGAGUCUNNNNNNAGACGAAACAGC

Assays:
hypoxanthine [1] = variants of: B1; assay: FACS-Seq fitted mean relative fluorescence mCherry/BFP without ligand (log10 relative fluorescence); ligand: hypoxanthine (xanthine aptamer); higher = higher reporter protein expression; details: HEK293T, ligand present: no
Protocol: (§1)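 Hammerhead (sTRSV) ribozyme switch libraries with a ligand aptamer grafted on stem I and a randomized N4-6 loop II, cloned into the 3' UTR of mCherry and transiently transfected into HEK293T cells; RNA-Seq 72 h post transfection with ligand added 1 h before transfection; RNA read count / plasmid DNA read count normalized to the non-cleaving sTRSVctl (x100), log10; sequences with >100 DNA reads. FACS-Seq: lentiviral library sorted into 6 bins after 48 h ligand, log-normal fit mean of mCherry/BFP scaled to controls. Printed sequences are partial switch sequences.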

hypoxanthine [2] = variants of: B1; assay: normalized RNA/DNA level with ligand (relative to sTRSVctl = 100) (log10 (% of sTRSVctl)); ligand: hypoxanthine (xanthine aptamer); higher = less ribozyme self-cleavage, higher mRNA level; details: ligand concentration (+) RNA-Seq: 5 mM, HEK293T, reporter: mCherry (pCS4076), ligand present: yes
Protocol: as §1

hypoxanthine [3] = variants of: B1; assay: normalized RNA/DNA level without ligand (relative to sTRSVctl = 100) (log10 (% of sTRSVctl)); ligand: hypoxanthine (xanthine aptamer); higher = less ribozyme self-cleavage, higher mRNA level; details: HEK293T, reporter: mCherry (pCS4076), ligand present: no
Protocol: as §1

hypoxanthine [4] = variants of: B1; assay: FACS-Seq fitted mean relative fluorescence mCherry/BFP with ligand (log10 relative fluorescence); ligand: hypoxanthine (xanthine aptamer); ligand concentration (+) FACS-Seq: 5 mM; higher = higher reporter protein expression; details: HEK293T, ligand present: yes
Protocol: as §1

Variant	FACS-Seq fitted mean (log10) (hypoxanthine [1])	normalized RNA/DNA level with ligand (log10) (hypoxanthine [2])	normalized RNA/DNA level without ligand (log10) (hypoxanthine [3])	FACS-Seq fitted mean (log10) (hypoxanthine [4])
GAAGCG	0.1393 ± 0.001	1.8561 ± 0.0014	1.4 ± 0.075	0.56 ± 0.016
GAAGCA	0.802 ± 0.069	1.96 ± 0.03	1.76 ± 0.049	0.779 ± 0.075
UAAUCU	0.5653 ± 0.0022	1.96 ± 0.043	1.87 ± 0.061	0.561 ± 0.067
UAAUCG	-0.0742 ± 0.028	1.93 ± 0.021	1.633 ± 0.014	0.247 ± 0.059
UACCGA	0.439 ± 0.021	1.91 ± 0.041	1.75 ± 0.024	0.551 ± 0.044
UACCGG	0.141 ± 0.038	1.91 ± 0.0042	1.63 ± 0.038	0.197 ± 0.15
UACCGU	0.0177 ± 0.0044	1.95 ± 0.08	1.7185 ± 0.00046	0.448 ± 0.028
GACGCU	0.261 ± 0.12	1.94 ± 0.037	1.893 ± 0.0077	0.508 ± 0.048
UACCCC	0.5672 ± 0.0022	1.95 ± 0.062	1.9 ± 0.064	0.523 ± 0.047
UACCAG	0.0403 ± 0.078	1.87 ± 0.015	1.589 ± 0.0032	0.0509 ± 0.085
UACCAA	-0.105 ± 0.11	1.92 ± 0.036	1.838 ± 0.011	-0.235 ± 0.035
UACCUG	-0.0249 ± 0.053	1.93 ± 0.024	1.635 ± 0.012	0.0984 ± 0.069
UACCUA	0.48 ± 0.072	1.93 ± 0.0042	1.921 ± 0.019	0.369 ± 0.023
UACGAA	0.0406 ± 0.024	1.9122 ± 0.00026	1.69 ± 0.013	0.191 ± 0.012
UACGAU	0.105 ± 0.066	1.92 ± 0.041	1.715 ± 0.015	-0.543 ± 0.12
UACGAG	0.145 ± 0.0054	1.88 ± 0.069	1.4 ± 0.058	0.382 ± 0.014
CAAGCA	0.544 ± 0.054	1.964 ± 0.012	1.7 ± 0.063	0.609 ± 0.094
CAAGCC	0.17 ± 0.076	1.96 ± 0.011	1.87 ± 0.028	0.404 ± 0.0094
UAAGGG	0.3343 ± 0.00083	1.878 ± 0.013	1.4441 ± 0.0011	0.519 ± 0.015
UAAGGU	0.356 ± 0.021	1.94 ± 0.042	1.53 ± 0.027	0.602 ± 0.06
UAAGGA	0.215 ± 0.031	1.88 ± 0.041	1.608 ± 0.0063	0.472 ± 0.057
AAAUAG	0.258 ± 0.041	1.842 ± 0.0027	1.44 ± 0.018	0.487 ± 0.016
AAAUAA	0.684 ± 0.016	1.89 ± 0.024	1.74 ± 0.025	0.775 ± 0.11
AAAUAU	-0.168 ± 0.02	1.924 ± 0.012	1.763 ± 0.0044	-0.451 ± 0.1

Variant	FACS-Seq fitted mean (log10) (hypoxanthine [1])	normalized RNA/DNA level with ligand (log10) (hypoxanthine [2])	normalized RNA/DNA level without ligand (log10) (hypoxanthine [3])	FACS-Seq fitted mean (log10) (hypoxanthine [4])
CAAUUA	0.8094 ± 0.0076	1.89 ± 0.049	1.728 ± 0.0045	0.753 ± 0.03
CAAUUG	0.324 ± 0.016	1.96 ± 0.026	1.894 ± 0.014	0.498 ± 0.044
CAAUUU	-0.039 ± 0.03	1.932 ± 0.015	1.83 ± 0.034	0.406 ± 0.03
GAAGGG	-0.0424 ± 0.023	1.806 ± 0.01	1.324 ± 0.0061	0.431 ± 0.059
GAAGGA	0.247 ± 0.034	1.92 ± 0.021	1.64 ± 0.031	0.559 ± 0.021
UACGCA	-0.76 ± 0.081	1.924 ± 0.0096	1.82 ± 0.019	-0.297 ± 0.075
CAAUGG	-0.334 ± 0.031	1.82 ± 0.071	1.42 ± 0.042	0.178 ± 0.12
CAAUGU	0.483 ± 0.12	1.91 ± 0.034	1.86 ± 0.062	0.48 ± 0.078
UAAUGG	0.218 ± 0.021	1.87 ± 0.044	1.53 ± 0.052	0.457 ± 0.038
UACACU	-0.295 ± 0.069	1.911 ± 0.006	1.9 ± 0.0044	-0.34 ± 0.0052
GACCCG	0.0296 ± 0.027	1.89 ± 0.022	1.632 ± 0.016	0.292 ± 0.047
GACCCU	-0.308 ± 0.41	1.99 ± 0.023	1.972 ± 0.0096	0.1808 ± 0.00023
GACCCC	0.0047 ± 0.072	1.94 ± 0.019	1.87 ± 0.038	0.161 ± 0.06
CACCAC	0.232 ± 0.012	1.92 ± 0.056	1.81 ± 0.063	0.406 ± 0.036
AACACA	0.00339 ± 0.015	1.9 ± 0.055	1.83 ± 0.023	-0.0536 ± 0.037
AACACC	0.754 ± 0.017	1.9322 ± 0.00016	1.9 ± 0.02	0.806 ± 0.073
AACACG	0.0502 ± 0.00077	1.85 ± 0.046	1.4 ± 0.045	0.412 ± 0.037
CACACU	0.146 ± 0.034	1.953 ± 0.0082	1.87 ± 0.036	0.266 ± 0.0029
GAAGUU	-0.155 ± 0.12	1.966 ± 0.0047	1.831 ± 0.008	-0.587 ± 0.17
GAAGUG	-0.0452 ± 0.0093	1.8 ± 0.024	1.276 ± 0.012	0.468 ± 0.037
AAAUGA	0.89 ± 0.066	1.924 ± 0.0069	1.688 ± 0.0025	0.709 ± 0.13
AAAUGG	0.175 ± 0.024	1.78 ± 0.025	1.33 ± 0.019	0.502 ± 0.013
AAAUGC	-0.0368 ± 0.059	1.92 ± 0.029	1.76 ± 0.026	0.173 ± 0.096
AAAGCU	-0.307 ± 0.014	1.94 ± 0.026	1.85 ± 0.034	-0.41 ± 0.022

Variant	FACS-Seq fitted mean (log10) (hypoxanthine [1])	normalized RNA/DNA level with ligand (log10) (hypoxanthine [2])	normalized RNA/DNA level without ligand (log10) (hypoxanthine [3])	FACS-Seq fitted mean (log10) (hypoxanthine [4])
AAAGCG	0.0919 ± 0.015	1.82 ± 0.026	1.32 ± 0.086	0.539 ± 0.023
AAAGCA	0.391 ± 0.034	1.93 ± 0.043	1.77 ± 0.035	0.503 ± 0.023
AAAUCG	0.0899 ± 0.022	1.86 ± 0.04	1.36 ± 0.014	0.509 ± 0.04
AAAUCA	0.598 ± 0.077	1.927 ± 0.0036	1.8121 ± 0.0018	0.629 ± 0.082
AAAUUA	-0.311 ± 0.019	1.899 ± 0.016	1.83 ± 0.055	-0.0839 ± 0.038
AAAUUC	0.489 ± 0.043	1.95 ± 0.041	1.87 ± 0.033	0.603 ± 0.015
AAAUUU	0.596 ± 0.082	1.95 ± 0.043	1.9 ± 0.034	0.577 ± 0.029
AAAUUG	0.0713 ± 0.0046	1.88 ± 0.035	1.54 ± 0.049	0.431 ± 0.0093
CACCGA	0.374 ± 0.048	1.94 ± 0.0088	1.8 ± 0.038	0.516 ± 0.011
AAAGGG	0.0328 ± 0.0085	1.753 ± 0.0035	1.32 ± 0.073	0.292 ± 0.084
AAAGGC	-0.66 ± 0.0082	1.91 ± 0.035	1.781 ± 0.0092	-0.684 ± 0.085
AAAGGU	0.195 ± 0.021	1.9 ± 0.054	1.61 ± 0.053	0.526 ± 0.025
AAAGGA	0.0795 ± 0.041	1.9 ± 0.031	1.58 ± 0.037	-0.105 ± 0.2
AACCGG	0.0275 ± 0.00055	1.877 ± 0.011	1.43 ± 0.031	0.526 ± 0.015
AACCGU	0.798 ± 0.12	1.889 ± 0.0024	1.75 ± 0.057	0.637 ± 0.047
AACCGA	0.422 ± 0.041	1.9477 ± 0.0019	1.72 ± 0.019	0.533 ± 0.044
AACCGC	-0.101 ± 0.015	1.916 ± 0.014	1.79 ± 0.036	0.124 ± 0.016
AACGCG	-0.0882 ± 0.017	1.812 ± 0.011	1.33 ± 0.08	0.162 ± 0.024
AACGCC	0.0156 ± 0.023	1.94 ± 0.048	1.84 ± 0.037	0.1 ± 0.21
AACGCU	0.624 ± 0.015	1.94 ± 0.032	1.85 ± 0.023	0.548 ± 0.11
AACCUG	0.131 ± 0.046	1.81 ± 0.02	1.38 ± 0.028	0.4422 ± 0.0015
GACGAU	0.412 ± 0.021	1.91 ± 0.027	1.75 ± 0.023	0.672 ± 0.053
GACGAG	0.184 ± 0.028	1.76 ± 0.056	1.31 ± 0.017	0.597 ± 0.026
